Read-outs that look alike come from different tables or passages of the source. Blank lines part the entries; values can stand above or below the substance they belong to.
How the values were obtained:
[1] = target: integrin α2β1 α2 ligand binding domain (Homo sapiens) (UniProt P17301); settings: cited from earlier work
[2] = target: integrin α2β1 α2 ligand binding domain (Homo sapiens) (UniProt P17301); settings: cited from earlier work; remark: listed apart in the source
[3] = target: integrin α5β1 (Homo sapiens) (UniProt P08648); settings: cited from earlier work
[4] = target: α5β1 integrin (UniProt P08648); experiment: optical biosensor (IAsys); α5β1 integrin immobilised; free LG3 at 3.1×10^−8 M to 3.1×10^−7 M, D3904A DV at 8.0×10^−8 M to 4.0×10^−7 M; global fitting; Kd calculated as koff/kon
α5β1 integrin, sequence (P08648 42-1049, chain 1 of 2): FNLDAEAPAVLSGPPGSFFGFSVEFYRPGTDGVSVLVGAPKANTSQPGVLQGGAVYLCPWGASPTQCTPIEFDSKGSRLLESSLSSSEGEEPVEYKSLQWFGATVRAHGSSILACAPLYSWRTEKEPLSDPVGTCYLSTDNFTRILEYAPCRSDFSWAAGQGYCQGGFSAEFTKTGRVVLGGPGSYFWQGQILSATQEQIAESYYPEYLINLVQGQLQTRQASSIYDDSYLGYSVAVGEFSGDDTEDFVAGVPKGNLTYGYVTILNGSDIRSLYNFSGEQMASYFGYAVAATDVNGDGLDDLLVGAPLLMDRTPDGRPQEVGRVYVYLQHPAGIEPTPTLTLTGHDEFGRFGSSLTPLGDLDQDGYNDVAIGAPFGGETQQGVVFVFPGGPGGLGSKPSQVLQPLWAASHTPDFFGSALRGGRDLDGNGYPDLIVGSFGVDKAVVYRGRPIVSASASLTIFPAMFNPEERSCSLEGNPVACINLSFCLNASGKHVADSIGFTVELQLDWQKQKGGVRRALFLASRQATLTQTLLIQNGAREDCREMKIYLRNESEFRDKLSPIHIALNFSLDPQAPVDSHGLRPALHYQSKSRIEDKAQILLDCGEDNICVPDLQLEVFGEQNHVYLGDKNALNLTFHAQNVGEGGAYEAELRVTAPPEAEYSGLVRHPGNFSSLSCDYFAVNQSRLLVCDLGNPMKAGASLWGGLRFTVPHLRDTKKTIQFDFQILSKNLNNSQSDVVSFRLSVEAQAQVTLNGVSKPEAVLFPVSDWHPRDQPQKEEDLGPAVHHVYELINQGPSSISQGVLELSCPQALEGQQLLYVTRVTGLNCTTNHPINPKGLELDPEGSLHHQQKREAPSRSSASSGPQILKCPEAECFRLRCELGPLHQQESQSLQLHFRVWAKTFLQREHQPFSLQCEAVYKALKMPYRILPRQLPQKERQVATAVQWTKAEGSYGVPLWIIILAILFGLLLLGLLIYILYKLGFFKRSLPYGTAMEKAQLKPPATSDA
α5β1 integrin, sequence (P05556 21-798, chain 2 of 2, further chain): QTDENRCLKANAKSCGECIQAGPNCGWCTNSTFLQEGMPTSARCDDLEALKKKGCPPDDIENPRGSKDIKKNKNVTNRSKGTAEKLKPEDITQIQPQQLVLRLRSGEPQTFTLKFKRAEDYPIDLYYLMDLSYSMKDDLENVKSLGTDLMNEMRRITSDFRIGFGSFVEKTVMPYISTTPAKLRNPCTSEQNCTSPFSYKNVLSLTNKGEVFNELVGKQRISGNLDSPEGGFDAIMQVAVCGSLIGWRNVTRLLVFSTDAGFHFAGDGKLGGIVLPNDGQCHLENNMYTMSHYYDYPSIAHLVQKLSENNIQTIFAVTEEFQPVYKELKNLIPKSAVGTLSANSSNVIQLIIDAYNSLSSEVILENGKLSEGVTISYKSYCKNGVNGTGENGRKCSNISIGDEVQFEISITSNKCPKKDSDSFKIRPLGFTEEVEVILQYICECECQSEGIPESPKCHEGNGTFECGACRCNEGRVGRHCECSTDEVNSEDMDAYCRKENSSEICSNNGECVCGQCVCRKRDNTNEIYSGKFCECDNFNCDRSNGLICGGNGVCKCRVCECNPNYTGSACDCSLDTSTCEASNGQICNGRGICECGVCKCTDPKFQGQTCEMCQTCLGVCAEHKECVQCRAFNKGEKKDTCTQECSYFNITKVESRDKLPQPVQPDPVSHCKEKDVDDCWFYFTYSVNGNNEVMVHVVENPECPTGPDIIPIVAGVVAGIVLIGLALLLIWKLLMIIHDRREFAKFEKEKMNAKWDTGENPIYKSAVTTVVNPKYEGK

Perlecan domain V Domain V, sequence (P98160 3687-4391): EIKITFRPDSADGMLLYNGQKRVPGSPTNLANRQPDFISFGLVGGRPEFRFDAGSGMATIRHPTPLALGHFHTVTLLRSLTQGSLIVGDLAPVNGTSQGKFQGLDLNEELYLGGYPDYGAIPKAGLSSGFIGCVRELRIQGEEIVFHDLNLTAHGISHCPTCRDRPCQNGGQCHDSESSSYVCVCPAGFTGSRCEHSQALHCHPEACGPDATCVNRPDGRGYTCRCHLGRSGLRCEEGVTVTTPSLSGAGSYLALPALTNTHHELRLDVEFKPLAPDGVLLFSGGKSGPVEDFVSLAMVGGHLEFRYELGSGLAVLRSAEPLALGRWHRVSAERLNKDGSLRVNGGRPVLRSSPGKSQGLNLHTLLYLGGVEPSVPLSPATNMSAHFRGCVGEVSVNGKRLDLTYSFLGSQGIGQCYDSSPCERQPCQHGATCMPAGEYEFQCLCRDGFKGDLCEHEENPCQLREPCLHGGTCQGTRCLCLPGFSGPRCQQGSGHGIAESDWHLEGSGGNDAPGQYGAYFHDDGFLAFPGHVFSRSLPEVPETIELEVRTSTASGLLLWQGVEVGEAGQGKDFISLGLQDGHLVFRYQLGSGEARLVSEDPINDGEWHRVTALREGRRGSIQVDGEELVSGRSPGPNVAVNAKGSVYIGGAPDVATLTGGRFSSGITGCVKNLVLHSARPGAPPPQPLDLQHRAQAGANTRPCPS
integrin α2β1 α2 ligand binding domain (Homo sapiens), sequence (P17301 30-1132, chain 1 of 2): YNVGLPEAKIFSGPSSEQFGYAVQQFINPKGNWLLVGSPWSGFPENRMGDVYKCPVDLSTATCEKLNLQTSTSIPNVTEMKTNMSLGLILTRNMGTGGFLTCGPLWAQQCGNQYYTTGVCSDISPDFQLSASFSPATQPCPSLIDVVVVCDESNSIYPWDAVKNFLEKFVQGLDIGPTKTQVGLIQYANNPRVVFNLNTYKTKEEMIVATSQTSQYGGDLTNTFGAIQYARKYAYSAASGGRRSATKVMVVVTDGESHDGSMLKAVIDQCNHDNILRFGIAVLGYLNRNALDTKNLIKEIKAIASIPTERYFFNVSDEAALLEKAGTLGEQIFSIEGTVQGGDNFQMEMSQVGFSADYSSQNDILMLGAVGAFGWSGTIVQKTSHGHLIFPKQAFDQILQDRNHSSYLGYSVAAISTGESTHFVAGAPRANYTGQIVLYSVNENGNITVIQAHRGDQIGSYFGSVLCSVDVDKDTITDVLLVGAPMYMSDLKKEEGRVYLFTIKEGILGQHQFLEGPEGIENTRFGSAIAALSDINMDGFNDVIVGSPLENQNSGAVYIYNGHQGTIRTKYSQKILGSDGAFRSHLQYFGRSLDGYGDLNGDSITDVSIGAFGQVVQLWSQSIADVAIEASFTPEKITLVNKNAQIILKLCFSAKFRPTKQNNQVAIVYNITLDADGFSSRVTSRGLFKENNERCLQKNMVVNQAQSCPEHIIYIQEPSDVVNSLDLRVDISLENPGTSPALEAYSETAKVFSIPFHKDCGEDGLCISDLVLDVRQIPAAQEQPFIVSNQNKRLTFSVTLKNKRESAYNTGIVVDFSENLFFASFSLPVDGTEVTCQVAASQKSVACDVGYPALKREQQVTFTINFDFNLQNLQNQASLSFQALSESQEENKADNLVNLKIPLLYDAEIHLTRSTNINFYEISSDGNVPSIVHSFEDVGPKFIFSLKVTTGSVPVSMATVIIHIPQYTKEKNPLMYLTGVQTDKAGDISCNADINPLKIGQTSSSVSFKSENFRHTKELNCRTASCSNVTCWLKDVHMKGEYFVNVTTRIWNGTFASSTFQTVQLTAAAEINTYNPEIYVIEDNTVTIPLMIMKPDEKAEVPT
integrin α2β1 α2 ligand binding domain (Homo sapiens), sequence (P05556 21-728, chain 2 of 2, further chain): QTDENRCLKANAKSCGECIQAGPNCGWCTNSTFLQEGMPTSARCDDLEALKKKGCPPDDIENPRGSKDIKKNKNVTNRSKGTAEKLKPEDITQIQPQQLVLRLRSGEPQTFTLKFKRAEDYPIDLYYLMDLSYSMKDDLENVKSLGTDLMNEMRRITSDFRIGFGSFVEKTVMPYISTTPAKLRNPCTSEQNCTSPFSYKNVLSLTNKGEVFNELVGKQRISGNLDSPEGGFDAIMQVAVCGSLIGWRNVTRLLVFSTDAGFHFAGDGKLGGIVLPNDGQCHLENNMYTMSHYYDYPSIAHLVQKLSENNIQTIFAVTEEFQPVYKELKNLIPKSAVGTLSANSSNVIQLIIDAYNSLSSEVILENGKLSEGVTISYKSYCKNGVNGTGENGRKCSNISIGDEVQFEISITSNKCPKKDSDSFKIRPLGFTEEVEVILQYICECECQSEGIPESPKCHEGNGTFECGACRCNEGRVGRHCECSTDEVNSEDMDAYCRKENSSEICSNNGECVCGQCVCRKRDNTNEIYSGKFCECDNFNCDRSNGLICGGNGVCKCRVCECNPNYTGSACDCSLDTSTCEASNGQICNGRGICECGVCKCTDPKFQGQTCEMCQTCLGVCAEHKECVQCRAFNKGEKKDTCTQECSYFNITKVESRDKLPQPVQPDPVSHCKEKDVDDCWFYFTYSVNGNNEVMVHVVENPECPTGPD
Perlecan LG3 LG3, sequence (P98160 4194-4391): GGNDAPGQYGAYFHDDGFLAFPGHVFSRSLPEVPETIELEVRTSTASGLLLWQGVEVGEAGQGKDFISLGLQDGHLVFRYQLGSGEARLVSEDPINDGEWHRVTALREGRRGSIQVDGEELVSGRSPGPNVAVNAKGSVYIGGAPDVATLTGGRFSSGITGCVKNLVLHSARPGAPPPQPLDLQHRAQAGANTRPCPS

Substance: Perlecan LG3 LG3 (from UniProt P98160)
Kd [1]: 1000 nM

Substance: Perlecan domain V Domain V (from UniProt P98160)
Kd [2]: 80 nM | Kd [3]: 160 nM

Kd [4]: 370 nM | koff [4]: 0.22 s⁻¹ | kon [4]: 600000 M⁻¹ s⁻¹
Substance: D3904A DV (perlecan Domain V with A in place of the D of its DGR sequence) (domain or fragment; other documents disagree on this pair)

Reference: publication PMC3444475
